Results on 19 sequences are retold here after a protein production outcome set (Wang et al. 2014).

The nature of this data set: label from the status in PepcDB records.
“MPAGLVISAPASGVGKTTLTLALARAWRNRGLSVQCFKSGPDYIDPAFHAAATGRASVNVDSWAMDRGGIAHLVGRGADADVVLAEGSMGLFDGVAARGVSGTGATADIAEMLGWPVLLVIDPSGQAQTAAAIAAGLRDYRPGVRLAGVVLNRVASPRHEDLVRRALDDAGIAVFGALPRHAEISLPKRHLGLVQAEEQAEIGKLIDEAARFVAEHVDLDAVLQSAAAWAPQPAANGLNVTPPGQRIALARDAAFSFVYPHMLEAWRAAGADISTFSPLADEAPDASADVCWLPGGYPELHAGKIAANARFCSGLRAFAETRPVHGECGGYMVLGTALTDADGVRHEMAGLLGLETSFAKRRMHLGYRLAELAAPMPGHSPGARLRGHEFHYSTIAAQPDMPLAVVHDATGAVIAETGSRRGNATGTFFHLIAEDRLEHHHHHH”: the protein production entry is “not failed”.

For the sequence “MPAITRRALSAGLIAAVALSVLPFAAQAAEELKIGYQKTGLPVIARQQGVIEKALEAKGVKVSWVEFTAGPPLVEALNVGSINVGWTGDAPPIFGQAAGSAIVYVAALPSNGKGEAIFTKPESGIKSVADLKGKKVGVGKGTSAHNLLVAALEKNGLKLSDIDVTYLSPADAAAAFASDKIDAWAVWDPFYAIAETRYKPVTLARTSDVLDVKTYFLANRDYAKSHADTINTNVGALGEAAKWSAANRDKVAAALHEVTGVPLEAQTLAANRSEFGITRIDDKIVASQQETADRFYRLGLIPKQISIKDAVWSGATN”, the protein production entry is “failed”.

For the sequence “MPAKPIDLGPLHFAKRGDAVAYLNDMLHRYDVGDRVGANDTVILRAALEHHPDAEAKKGCGITHFNVRTADFGTKCFWLNRTDGTTEKFSHRACIYGT”, the protein production result is given as “failed”.

“MPALACVDTSFVPPAYAFSDTAGDVFIPASSPTSAAVVVDRWSPSLSSSLYRIDGWGAPYFIANSSGNISVRPHGSETLPHQDIDLLKIVKKVTGPKSSGGLGLQLPLIVRFPDVLKNRLECLQSAFDYAIKSQGYDSHYQGVYPVKCNQDRFVVEDIVKFGSSFRFGLEAGSKPEILLAMSCLCKGSPDAFLVCNGFKDAEYISLALLGRKLALNTVIVLEQEEELDLVIELSQKMNVRPVIGLRAKLRTKHSGHFGSTSGEKGKFGLTTTQIVRVVRKLRQSGMLDCLQLLHFHIGSQIPSTSLLSDGVAEAAQLYCELVRLGAHMKVIDIGGGLGIDYDGSKSGESDLSVAYSLEEYAEAVVASVRVVCDRSSVKHPVICSESGRAIVSHHSVLIFEAVSADKPMVHQATPGDIQFLLEGNEEARANYEDLYAAVMRGDHESCLLYVDQLKQRCVEGFKEGVLSIEQLASVDGLCEWVLKAIGASDPVHTYNINLSVFTSIPDLWGIDQLFPIVPIHKLDQRPGARGILSDLTCDSDGKINKFIGGESSLPLHELDKNGSGGRYFLGMFLGGAYEEALGGVHNLFGGPSVVRVSQSDGPHSFAVTRAVPGQSSADVLRAMQHEPELMFQTLKHRAEEMMHTKGGSEGENEEEEEDDEFNNVAASLDRSFHNMPYLATEQASPSNSLSAAISNLGFYYCDEDVYDYISA”: the protein production result is recorded as “failed”.

On to “MPALITYRTTVQEDWVDYNGHLRDAFYLLIFSYATDALMDRIGLDADSRGQSGNSLFTLEAHINYLHEVKLGTEVWVQTQILGFDRKRLHVYHSLHRAGFDEVLAASEQMLLHVDLAGPQSAPFGHTTVCRLNHLVEQQEGAQAPQYMGRTIKLPA”, for which the protein production result is “not failed”.

As to “MPANKKEGLIFGVMMCFGMVCVMSIYNAIINRAIYDFSLMTVFEMVIGFMIALLLDLLLVGPLAKKIAFRMPFDKTKKIYVILAMSTCMVIGMVLCMSVFGLVTAVLANGLNGDSLFSAYLMIVLKNFILAYPLQLLIMGPLVRGVFMKFVKPKLTAAI”, the protein production result is listed as “failed”.

For “MPAPLSIVIPTLQAESSLPRLLEALIEGLPNGLIREVIVSDGGSQDATRAIAEAAGAQVLNGPPSRGGQLRHGCDAARGDWLLVLHADTLPDPGWAGVVADHIAAREDAACFRLAFRARGPGAAWVAGWANLRTRLFGLPYGDQGLLIRRRDYQTAGGYPDQLLMEDVHLVRALSRAPVLLPHRALTGAERYLRSGWLRRGARNLWTLMRYFAGTDPEALARAYRRLEHHHHHH”, the protein production entry is “failed”.

“MPARPGAARERIRSTAAPAVGEKVLNALRDLPAGMIYTLGAKPTVLRGLALAIEKRVKGIDWSPDGATLFAEVMDGSRHHEVRLEANGGFLTPSCDCPLWRPTGHCPHVIAALAVLKKGLVHQAITSLRLDSDYLAEVSGWLSGVEAAQPTAPAVPRLVVERGADGIQARIWLGEHPVSIHDQALPRTVRDFLWTLLNPRESGFIIERYLEAFGDDAPMALRQDDNEIPLRFDRGRVHGTLTLLEQVRGMVIARKGLEDGHPIPDTCFAAYRYYFDIPAGAVRVIDSFEGWDLWNTINYEAAEWSLDTGVSVERNSRTISLPADAFNAIGLTVTEKGLPTILERIRFYGAGGPGEPARITHNYRLRVADMNDTTALLLAEGVYGDAAIPLSAGAFSFFTSRGRSTASVPLRTKKRSSAVIAGCFAALDCVTRAELERTIRHALAGDDFLKRTVKSEAKRIITAFAAACETRETTLLAADGAWLISVAEPKVEAQLLEIPYRLFGAEIFGSSDLAGAMTVNRDALFRQFPALHNRLAEAGFDLVLQDRPVEAVTLDVTLDATRSTLDWFELRPEIRCGTGELTEQEIAEAMASGGVFRRGDSFLLINEESSRILAMLYPEAGVKKRRKAEVVRIPRLQILDWLVLRHHGVSVRLSPEDERIFASLATFEEIPSSPLPERLQATLRHYQVDAFHWLAFLYTHRFGACLADDMGLGKTIQAISLLAALHEGTLPSRVPEPRPHLIVVPPSLLFNWENELARFYPAFTVLTYRGTGRSADFTGVDIVLTSYGIIPRDIGILAEIPFHCIVFDEAQAVKNIQADTTGACRRLRGAFTLCLTGTPVENHLGEYFSVMDLAVPGLLGSYEEFRRQAGNAAAPFLETLVRRTRPFVLRRSKQMIAAELPPKIETDIYLELTPRQKALYTRTVEEVRETVLEAWRGKSPGQARIIALTAILRLRQLCLSPRLLIADSREPSPKVEFLVEQLEELFTEGHSVLVFSQFTSFLDIVEGELSRRGVHYYRLDGSTPVPERKRLVTAFQKGDEPSVFLLSLKAGGKGLNLTRATYVFHLDPWWNPAVENQASDRAHRIGQTRQVTITRLVMRHTIEEKMMELKKRKLKLYHALLEENSAGDGGGISREDFEFLLG”: the protein production entry is recorded as “failed”.

With “MPARQSFTDLKNLVLCDIGNTRIHFAQNYQLFSSAKEDLKRLGIQKEIFYISVNEENEKALLNCYPNAKNIAGFFHLETDYVGLGIDRQMACLAVNNGVVVDAGSAITIDLIKEGKHLGGCILPGLAQYIHAYKKSAKILEQPFKALDSLEVLPKSTRDAVNYGMVLSVIACIQHLAKNQKIYLCGGDAKYLSAFLPHSVCKERLVFDGMEIALKKAGILECK”, the protein production entry was “not failed”.

Turning to “MPATAGRVRMPANNRVHSSAALQTHGIWQSAIGYDPYAPTSKEEPKTTQQKTEDPENSYASFQGLLALARITGSNNDEARGSCKKCGRVGHLTFQCRNFLSTKEDKEKDPGAIEAAVLSGLEKIRRGVGKGEVEEVSSEEEEESESSDSDVDSEMERIIAERFGKKKGGSSVKKTSSVRKKKKRVSDESDSDSDSGDRKRRRRSMKKRSSHKRRSLSESEDEEEGRSKRRKERRGRKRDEDDSDESEDEDDRRVKRKSRKEKRRRRSRRNHSDDSDSESSEDDRRQKRRNKVAASSDSEANVSGDDVSRVGRGSSKRSEKKSRKRHHRKERE”, the protein production entry was “failed”.

As for “MPCDFPGCGRIFSNRQYLNHHKKYQHIHQKSFSCPEPACGKSFNFKKHLKEHMKLHSDTRDYICEF”, the protein production entry is on record as “not failed”.

“MPCPPNVSMMLGKEGPAADSERVTLWRDHHLSHTHAVLWTVILVATVGDILLTMTGLTVGLQEGNAVVSTMLAEFGLAGLWLVKFGAMLWLVAGWRLLSERNATVFLALFAVVTLAVVAYNSVTILQYRGVITAVAGI”: the protein production entry was “failed”.

In the case of “MPDACFSDGDPIVLVVLGYVVVVVAVLGGYALTGGHMGALYQPAELIIIGGAAVGAFISSNSGKAIKATMKAMPSLLKGSKYKKELYLDVMALLYVLLSKARREGILFLEKEIADPASSSVFSQYPRILADAKMMEFLTDYLRMMVNGNMNAFEIEALMDHEIETVRHEAEIPAHALSRVGDGLPAFGIVAAVMGVVHALASADLPPAELGALIANAMVGTFLGILLAYGFVSPLASRVEHQVSESIKMYECIKVTLLASLNGYAPLVAVEFGRKVLYSTVRPSFLELDDHVREVKSLT”, the protein production entry is “failed”.

As to “MPDADVNDFELVDVDQKAADKAIKDLGVKATIDEVCTVGEEGYVVTATDKEGYGGDIKITVGITADGTINGISILSISETAGLGMRATEPAFYEQYQGKQAEKFVVSKDGGDGEPIDALSGATITSRAVTGAVNAALGYYQNAFLEHHHHHH”, the protein production result is on record as “not failed”.

As to “MPDFVNLWIYLSSTPLFGLTATLTVYLSAHAMYLRLGQVPLANPVLWSMVVLAAGLLAFGVPYPTYFAGAQFIHFLLGPAVVALAWPLWMRRAELRRRWARLLWAALFGGAVACASAVLLGWAVGLPRDIILSLAPKSVTAPVAMGLSETLGGIPALSAVFAALTGLVGALTGKYLFDLLGAVRGRQDWADRGFALGTVSHGIGAARAIQVNADAGAYAGLALGLQVILASLLIPVAFRLAAGLGGS”, the protein production result is reported as “failed”.

“MPDIDAGPRCRDAGSRMFRLAHLTDPHVGPLPRPRLRQLLSKRAAGYVNWRRGRSRHHDMDLLGALIADLHGQGVDHVACTGDLCNLGLPDEWESARVFLEALGPADRVSFVPGNHDAYVRGSLEGLLAACGGWTEADDGQIRLFPYLRRRGPLALVGLSSAIPTKPFVASGRLGPVQIEAAERVLRDLATAPDRPCRVVMIHHPPHPGGAASGRELKDAAAFAAMIGRAGADLILHGHNHVGTVARITGPDGRPVPVVGAPSASARTLLTNRRASYYLYTVTPGENGFQIAVTERGLDEAGGIGELSGFDIETPPADRIGLVHRRRQRHT”: the protein production result is given as “failed”.

For the sequence “MPDIFQQEARGWLRCGAPPFAGAVAGLTTKHGGESKGPFASLNMGLHVGDDRTDVVNNRRRLAEWLAFPLERWVCCEQVHGADIQKVTKSDRGNGAQDFATAVPGVDGLYTDEAGVLLALCFADCVPIYFVAPSAGLVGLAHAGWRGTAGGIAGHMVWLWQTREHIAPSDIYVAIGPAIGPCCYTVDDRVVDSLRPTLPPESPLPWRETSPGQYALDLKEANRLQLLAAGVPNSHIYVSERCTSCEEALFFSHRRDRGTTGRMLAFIGRREEWT”, the protein production entry was “not failed”.

For “MPDIVNTEQAQAWNGPEGAHWARNQDRWNAVNEGFDEPLLDAAGITGEDRVLDLGCGSGQTTRRAALRAPRGHVLGLDLSGPMLAEARSRAEREGVANVSFAQGDAQVHPFGAGAFDAAVSRYGVMFFADPVAAFGNVGRALRPGGRLAFVCPADAALNGWVTAMASLREVLPVGDFGQPGLPGMFSLAAPDRIGDVLTAAGFAGIDVNQVQAHGTWGRDAEDAAEFLLGTGPGRHLMERADPTARARARGILTDHLRTHEAADGTVRLLSTSWLTTATRPAATA”, the protein production entry is “failed”.

With “MPDMPPTETNAIQDRLPRTTNSVEDTMALGARIAQGLSPGAVVALYGDLGTGKTHFVKGVAQGLGLPPAEVRSPTFTILAVHDDGDRPLYHFDAYRVQTPDEFVELGFETYVHGDGLTCIEWAGRVADLLPADTVPLQFHHVAPSTRRITLGAPDSSSSEDDR”, the protein production result is reported as “failed”.
